{"source": "paper PMC10938628", "about": "(Science Advances, 2022)", "key": {"[1]": {"biological_target": "intact CarHC (C-terminal domain of the photoreceptor CarH)", "experiment": "SEC"}, "[2]": {"biological_target": "the molecule itself", "experiment": "SEC + other: dynamic light scattering"}, "SEC": {"biological_target": "the molecule itself", "experiment": "SEC"}}, "data": [{"molecule": "intact CarHC (C-terminal domain of the photoreceptor CarH) (domain or fragment)", "values": [{"measurement": "stoichiometry N", "setting": "[1]", "value": 4}]}, {"molecule": "CarHCC (Phe161-Leu276 of the photoreceptor CarH; C-terminal Rossmann-fold B12-binding segment of split CarHC) (domain or fragment, UniProt Q53W62 161-276, looked up) FPPGPPVLVTTPPGERHEIGAMLAAYHLRRKGVPALYLGPDTPLPDLRALARRLGAGTVVLSAVLSEPLRALPDGALKDLAPRVFLGGQGAGPEEARRLGAEYMEDLKGLAEALWL", "values": [{"measurement": "stoichiometry N", "setting": "[2]", "value": 4}]}, {"molecule": "reconstituted split CarHC complex (CarHCN + CarHCC held together by a cobalamin) (complex) chain 1: PEDLGTGLLEALLRGDLAGAEALFRRGLRFWGPEGVLEHLLLPVLREVGEAWHRGEIGVAEEHLASTFLRARLQELLDLAGFPPGPP chain 2: FPPGPPVLVTTPPGERHEIGAMLAAYHLRRKGVPALYLGPDTPLPDLRALARRLGAGTVVLSAVLSEPLRALPDGALKDLAPRVFLGGQGAGPEEARRLGAEYMEDLKGLAEALWL", "values": [{"measurement": "stoichiometry N", "setting": "SEC", "value": 4}]}]}
